B1: full-length StAR: full-length (1-285) steroidogenic acute regulatory protein (protein, UniProt P49675 1-285, looked up)
chain: MLLATFKLCAGSSYRHMRNMKGLRQQAVMAISQELNRRALGGPTPSTWINQVRRRSSLLGSRLEETLYSDQELAYLQQGEEAMQKALGILSNQEGWKKESQQDNGDKVMSKVVPDVGKVFRLEVVVDQPMERLYEELVERMEAMGEWNPNVKEIKVLQKIGKDTFITHELAAEAAGNLVGPRDFVSVRCAKRRGSTCVLAGMATDFGNMPEQKGVIRAEHGPTCMVLHPLAGSPSKTKLTWLLSIDLKGWLPKSIINQVLSQTQVDFANHLRKRLESHPASEARC
modifications: full-length
notes: full-length (1-285) steroidogenic acute regulatory protein

Key:
COS-1 cells = test: Pregnenolone production of COS-1 cells co-transfected with F2 (cholesterol side-chain cleavage fusion) and StAR constructs; format: cell-based, monkey; settings: for increase in steroidogenesis over the StAR-independent level seen with F2 alone: accumulated pregnenolone after 48 h; for steroidogenic activity (in words): pregnenolone in medium
Description: COS-1 cells were grown, transfected and assayed for pregnenolone production as Described (Stocco, D. M. & Clark, B. J. Regulation of the acute production of steroids in steroidogenic cells. Endocr. Rev. 17, 221-244 (1996)), (Bose, H. S., et al. N-218 MLN64, a protein with StAR-like steroidogenic activity is folded and cleaved similarly to StAR. Biochemistry 39, 11722-11731 (2000)). Three independent transfections, each performed in triplicate, were done for each construct.
To determine the location of biological activity of the mitochondrial protein StAR, wild-type and StAR proteins with an N-terminal deletion and StAR proteins fused to a protein that would function to immobilize the StAR protein in one of the four mitochondrial compartments were evaluated for their ability to catalyze steroidogenesis. Nonsteroidogenic COS-I monkey kidney cells were grown, transfected and assayed for pregnenolone production as described (Stocco, D. M. and Clark, B. J., Endocr Rev 17, 221-244 (1996); Bose, H. S., et al., Biochemistry 39, 11722-11731 (2000)). Three independent transfections, each performed in triplicate, were done for each construct. The cells were transfected with a vector expressing full length StAR or a vector expressing N-62 StAR, Tom-StAR, StAR-Tom, Tim44-StAR, or Tim9-StAR. Tom20, Tim9 and Tim44 cDNAs were prepared from human adrenal RNA by RT-PCR. N-62 StAR cDNA including an enterokinase linker fused to 63-285 StAR was derived from a bacterial expression vector (see Artemenko, et al., J. Biol. Chem. 276: 46583-46596 (2001). Tom/StAR is Tom20 fused to 63-285 through GSDDDDK, which contains Bam HI and enterokinase sites (Bam/EK linker). StAR/Tom is 1-285 StAR fused to Tom20 through Eco RI/EK linker (GFDDDDK). Tim9/StAR contains the 25 amino acid mitochondrial leader of cytochrome c oxidase subunit IV (Bose et al, Biochemistry, 37: 9768-9775 (1998)) fused to Tim9 linked to N-30 StAR through the Bam/EK linker. Tim44/StAR is Tim44 fused to 63-285 StAR through the Bam/EK linker. Tom20 has 50 amino-terminal residues embedded in the OMM and 95 residues in the cytoplasm (Abe, Y., et al., Cell 100, 551-560 (2000)). Expression of Tom20 with N-62 StAR fused to its carboxy-terminus (Tom/StAR) affixed StAR to the cytoplasmic side of the OMM. Expression of Tim9, which is normally confined to the IMS (Bauer et al, J. Inher. Metab. Dis. 24: 166-180 (2001)), fused to N-30 StAR (Tim9/StAR) localized StAR to the IMS. Expression of Tim44, which lies on the matrix side of the IMM, fused to N-62 StAR (Tim44/StAR), targeted StAR to the matrix. […]

MA-10 cell mitochondria = test: Mitochondrial import and cleavage kinetics of StAR constructs; format: biochemical, mouse; settings: 26° C., phosphorimager quantitation of uncleaved and cleaved imported protein
From the text: StAR constructs were cloned into the BglII/EcoRI site of pSP6, transcribed with SP6 RNA polymerase (Promega) and translated with [35S]methionine as described (Chuck, S. & Lingappa, V. Apolipoprotein B intermediates. Nature 356, 115-116 (1992)). Mitochondria, isolated from 5 £ 106 MA-10 or COS-1 cells by hypotonic shock and homogenization (Bose, H. S., et al. N-218 MLN64, a protein with StAR-like steroidogenic activity is folded and cleaved similarly to StAR. Biochemistry 39, 11722-11731 (2000)) were suspended in […] of 125 mM sucrose, 1 mM ATP, 1 mM NADH, 50 mM KCl, 0.05 mM ADP, 2 mM DTT, 5 mM Na-succinate, 2 mM Mg(OAc)2, 2 mM KH2PO4 and 10 mM HEPES buffer at pH 7.4. Mitochondria (50 ml) and 1 ml of the transcription/translationmix were incubated at 268 C. for various times; import was terminated with 1 ml 1 mM mCCCP (Calbiochem). Some mitochondria were extracted with fresh 100 mM Na2CO3, pH 11.5, for 15 min at 48 C. and spun at 15,000 g for 15 min at 48 C. to pellet membranes. Some membranes were incubated with 0.1% digitonin (Sigma) for 15 min at 48 C. and spun at 144,000 g for 1 h at 48 C. to pelletOMMfragments. […] Analysis was by SDS-polyacrylamide gel electrophoresis (SDS-PAGE) and phosphorimager quantification (Molecular Dynamics, Storm 860). […]

MA-10 mitochondria = test: Steroidogenic activity (pregnenolone) of isolated MA-10 mitochondria incubated with StAR constructs from cell-free transcription/translation; format: biochemical, mouse
Description: (§1) StAR constructs were bioassayed (Bose, H. S., et al. N-218 MLN64, a protein with StAR-like steroidogenic activity is folded and cleaved similarly to StAR. Biochemistry 39, 11722-11731 (2000)) with MA-10 mitochondria. Linked transcription/translation system was added directly to the mitochondria except when Tim9/StAR was immunoprecipitated with anti-StAR antiserum (Bose, H. S., et al. The active form of the steroidogenic acute regulatory protein, StAR, appears to be a molten globule. Proc. Natl Acad. Sci. USA 96, 7250-7255 (1999)), collected with protein A-sepharose CL-4B (Pharmacia), washed, dissociated from the sepharose-antibody complex at pH 3.0, neutralized and added directly to mitochondria. Immunoassays of pregnenolone were performed after incubation at 378 C. for 1 h; immunoblotting was performed as described (Bose, H. S., et al. N-218 MLN64, a protein with StAR-like steroidogenic activity is folded and cleaved similarly to StAR. Biochemistry 39, 11722-11731 (2000)).
as §1, with “al.,” for “al. N-218 MLN64, a protein with StAR-like steroidogenic activity is folded and cleaved similarly to StAR.”, “al., Proc” for “al. The active form of the steroidogenic acute regulatory protein, StAR, appears to be a molten globule. Proc.”, “Acad Sci” for “Acad. Sci.”, “harvested” for “collected”, “37°” for “378 C.”

Molecule | increase in steroidogenesis over the StAR-independent level seen with F2 alone (COS-1 cells) [fold] | import speed (ranking) (MA-10 cell mitochondria) | increase in steroidogenesis (MA-10 mitochondria; MA-10 mitochondria incubated with cell-free transcription/translation system expressing the construct, versus control system) [fold] | activity of MA-10 cell mitochondria (in words) (MA-10 mitochondria; equal amounts of each protein added, 1 h) | steroidogenic activity of reconstituted mitochondria (in words) (MA-10 mitochondria; mitochondria reconstituted from OMM and mitoplast fractions) | steroidogenic activity (in words) (COS-1 cells) | steroidogenic activity (in words) (COS-1 cells; listed as full-length (1-285) StAR)
CC(C)CC[C@@H](O)[C@@H](C)[C@H]1CC[C@H]2[C@@H]3CC=C4C[C@@H](O)CC[C@]4(C)[C@H]3CC[C@]12C [22R-OH-cholesterol, 22R-hydroxycholesterol, reference compound] | ~20 | – | – | – | – | – | –
B1 | 6 | Scc/N-62 StAR>>Scc/N-30 StAR>full-length StAR | ~6 | equally active | active | equivalent at all times measured after transfection | about half the maximal capacity of the cells

Source: US20060110730A1, “Methods and compositions for regulation and manipulation of steroidogenesis” (priority 2002, published 2006)
